Measured values taken from publication PMC6969506 (Proceedings of the National Academy of Sciences of the …, 2020).

Target: the molecule itself
Test: SEC-MALS

B1: CDTb construct lacking the C-terminal RBD2 (residues 212 to 751; CDTb∆RBD2) (domain or fragment)
chain: SDWEDEDLDTDNDNIPDSYERNGYTIKDLIAVKWEDSFAEQGYKKYVSNYLESNTAGDPYTDYEKASGSFDKAIKTEARDPLVAAYPIVGVGMEKLIISTNEHASTDQGKTVSRATTNSKTESNTAGVSVNVGYQNGFTANVTTNYSHTTDNSTAVQDSNGESWNTGLSINKGESAYINANVRYYNTGTAPMYKVTPTTNLVLDGDTLSTIKAQENQIGNNLSPGDTYPKKGLSPLALNTMDQFSSRLIPINYDQLKKLDAGKQIKLETTQVSGNFGTKNSSGQIVTEGNSWSDYISQIDSISASIILDTENESYERRVTAKNLQDPEDKTPELTIGEAIEKAFGATKKDGLLYFNDIPIDESCVELIFDDNTANKIKDSLKTLSDKKIYNVKLERGMNILIKTPTYFTNFDDYNNYPSTWSNVNTTNQDGLQGSANKLNGETKIKIPMSELKPYKRYVFSGYSKDPLTSNSIIVKIKAKEEKTDYLVPEQGYTKFSYEFETTEKDSSNIEITLIGSGTTYLDNLSITELNSTPEILDEP
stoichiometry N: 7
